Paper PMC5095914
Blank lines part the entries; values can stand above or below the substance they belong to.

Key:
[1] = molecular target: YidC cysteine mutant labelled with Cy3 at position 454 (E. coli) (UniProt P25714); experiment: other fluorescence titration; 60 nM Cy3-labelled YidC in 20 mM Hepes/KOH pH 7.5, 100 mM KCl, 10 mM MgOAc2, 5% glycerol, 0.1% DDM mixed 1:1 with 0.6 nM to 19.2 µM 70S ribosomes; 10 min at 20°C; fluorescence intensity on a Monolith NT.115; four repeats
[2] = molecular target: xFOc (subunit c of the ATP synthase with cysteines C21 and C65), expressed in E. coli C43 membranes (E. coli) (UniProt P68699); experiment: cross-linking; E. coli C43 membranes expressing xFOc oxidised with copper-1,10-phenanthroline (CuPh), with or without DTT; SDS-PAGE, western blotting with FOc antibody
[3] = molecular target: xFOc (subunit c of the ATP synthase with cysteines C21 and C65), in vitro translated (E. coli) (UniProt P68699); experiment: cross-linking; xFOc translated in vitro and inserted into proteoliposomes (large scale); mild oxidising conditions (lipids, atmospheric oxygen), no CuPh; non-reducing SDS-PAGE, phosphor imaging; c10-ring with HTL, SecYEG or without YidC, not with YidC alone

Kd [1]: 161 nM
Substance: 70S ribosomes (complex)

stoichiometry N [2]: 10
Substance: xFOc (subunit c of the ATP synthase with cysteines C21 and C65), expressed in E. coli C43 membranes (from UniProt P68699 1-79) (natural protein)

stoichiometry N [3]: 10
Substance: xFOc (subunit c of the ATP synthase with cysteines C21 and C65), in vitro translated (from UniProt P68699 1-79) (natural protein)
